Results published in US20240158497A1 (published 2024).
Blank lines part the entries; values can stand above or below the binder they belong to.

Legend:
[1] = molecular target: T1, full length human GP130 (L2V natural variant) on HEK293/Stat3-luc/gp130-2X Sort cells (human, UniProt P40189 23-918); test: FACS, 200 nM antibody on HEK293/gp130 2X Sort cells
T1 construct: whole, on cells; Stably over-expressed on HEK293 cells, sorted twice for high expression; also called HEK293/gp130 2X Sort
T1 sequence (looked up): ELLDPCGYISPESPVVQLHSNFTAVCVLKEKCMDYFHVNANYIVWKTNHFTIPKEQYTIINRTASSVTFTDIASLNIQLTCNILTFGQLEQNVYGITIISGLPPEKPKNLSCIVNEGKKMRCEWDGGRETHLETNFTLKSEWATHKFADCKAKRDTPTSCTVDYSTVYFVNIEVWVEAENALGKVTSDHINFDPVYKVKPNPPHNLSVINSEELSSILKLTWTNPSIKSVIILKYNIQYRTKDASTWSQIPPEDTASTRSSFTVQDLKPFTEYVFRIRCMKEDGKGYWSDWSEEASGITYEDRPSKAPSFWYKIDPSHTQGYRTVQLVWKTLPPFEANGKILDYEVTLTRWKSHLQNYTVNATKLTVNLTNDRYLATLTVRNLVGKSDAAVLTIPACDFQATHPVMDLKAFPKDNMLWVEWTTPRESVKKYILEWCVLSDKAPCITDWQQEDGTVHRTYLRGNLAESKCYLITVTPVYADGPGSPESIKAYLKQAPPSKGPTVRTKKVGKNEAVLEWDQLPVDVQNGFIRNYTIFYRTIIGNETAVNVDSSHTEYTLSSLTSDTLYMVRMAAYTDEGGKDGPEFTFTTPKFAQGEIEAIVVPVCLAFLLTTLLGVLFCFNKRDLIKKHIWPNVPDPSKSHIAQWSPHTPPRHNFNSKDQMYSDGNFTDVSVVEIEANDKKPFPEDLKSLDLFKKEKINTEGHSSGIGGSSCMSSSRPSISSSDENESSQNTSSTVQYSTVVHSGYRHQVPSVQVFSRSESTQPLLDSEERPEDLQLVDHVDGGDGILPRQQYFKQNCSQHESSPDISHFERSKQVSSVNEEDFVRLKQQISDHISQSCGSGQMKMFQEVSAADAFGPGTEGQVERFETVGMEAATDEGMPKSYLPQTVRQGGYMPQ
Description: (§1) For the FACS analysis, 0.5×10^6 cells/well of HEK293 parental cells, HEK293/Stat3-luc/gp130-2 X Sort cells, and HEK293/hLEPR-GPI cells, were incubated with 200 nM of the conventional antibodies against either GP130 or LEPR or with LEPRxGP130 bispecific antibodies, along with isotype control antibodies at 4° C. in PBS (without calcium and magnesium) containing 2% FBS.
(§2) Cells were fixed using BD CytoFix™ (Becton Dickinson, #554655) and analyzed on an IQue® (Intellicyt) Flow Cytometer. Unstained and secondary antibody alone controls were also tested for all cell lines. The results were analyzed using ForeCyt® (IntelliCyt) and FlowJo version 10 softwares to determine the geometric means of fluorescence for viable cells.

[2] = molecular target: T2, extracellular domain of human LEPR, GPI-anchored, on HEK293/hLEPR-GPI cells (human, UniProt P48357 22-839, GPI anchor at the C-terminus ; GPI anchor at the C-terminus, added through the carboxypeptidase M signal peptide. The N-terminal myc-myc tag is not written.); test: FACS, 200 nM antibody on HEK293/hLEPR-GPI cells, no Leptin
T2 sequence: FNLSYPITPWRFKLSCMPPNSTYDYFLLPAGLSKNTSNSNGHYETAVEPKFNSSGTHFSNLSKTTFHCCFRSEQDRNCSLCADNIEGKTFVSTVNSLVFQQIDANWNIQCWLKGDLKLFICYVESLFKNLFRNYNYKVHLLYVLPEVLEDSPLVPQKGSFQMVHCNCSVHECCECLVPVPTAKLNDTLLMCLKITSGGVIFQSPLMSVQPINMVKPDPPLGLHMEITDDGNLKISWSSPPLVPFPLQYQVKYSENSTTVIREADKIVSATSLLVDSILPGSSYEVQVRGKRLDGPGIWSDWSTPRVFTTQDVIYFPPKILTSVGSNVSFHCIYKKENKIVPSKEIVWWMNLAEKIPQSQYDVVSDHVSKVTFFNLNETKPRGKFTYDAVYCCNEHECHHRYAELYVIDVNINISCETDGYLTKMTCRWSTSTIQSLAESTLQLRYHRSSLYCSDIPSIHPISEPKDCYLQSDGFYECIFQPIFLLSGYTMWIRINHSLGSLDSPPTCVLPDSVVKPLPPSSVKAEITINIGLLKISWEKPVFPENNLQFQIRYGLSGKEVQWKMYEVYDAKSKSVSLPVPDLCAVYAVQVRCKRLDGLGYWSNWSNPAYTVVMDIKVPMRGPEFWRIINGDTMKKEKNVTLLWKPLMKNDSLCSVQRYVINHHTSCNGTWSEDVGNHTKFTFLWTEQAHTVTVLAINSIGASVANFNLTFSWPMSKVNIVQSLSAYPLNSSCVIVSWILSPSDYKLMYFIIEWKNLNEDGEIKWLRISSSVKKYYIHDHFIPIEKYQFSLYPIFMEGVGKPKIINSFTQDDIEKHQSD
Description: as §1, §2

[3] = molecular target: T2, extracellular domain of human LEPR, …; test: FACS, 200 nM antibody on HEK293/hLEPR-GPI cells, 1 µM Leptin
Description: as §1, §2

- Binding Ratio, normalized to unstained sample (FL4-A) [1]: 132 fold
- Binding Ratio, normalized to unstained sample (FL4-A) [2]: 4420 fold
- Binding Ratio, normalized to unstained sample (FL4-A) [3]: 3600 fold
B1: bsAb21236D (bispecific antibody, V domains shown)
VH 1: QVQLQESGPGLVKPSQTLSLTCTVSGGSISSGGDYWSWIRQLPGKGLEWIGYIYYSGSAYYNPSLKSRGTISIDTSKNQFSLKLTSVTAADTAVYFCVKLRFLEWFLGGWFGPWGQGTLVTVSS
VH 2: QVQLVESGGGLVKPGGSLRLSCAASGFTFSDYYMTWIRQTPGKGLDWVSYISSSGTNKYNADSVKGRFTISRDNAKNSLYLQMNSLRAEDTAVYYCVRDPPWGMDVWGQGTTVTVSS
VL: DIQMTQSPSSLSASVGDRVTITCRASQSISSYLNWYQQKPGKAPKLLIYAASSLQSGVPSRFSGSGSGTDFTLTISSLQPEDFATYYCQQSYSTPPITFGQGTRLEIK
notes: LEPR x GP130 bispecific with common light chain; also called H4H21236D; bsAb21236 (LEPR × GP130)

- Binding Ratio, normalized to unstained sample (FL4-A) [1]: 169 fold
- Binding Ratio, normalized to unstained sample (FL4-A) [2]: 6320 fold
- Binding Ratio, normalized to unstained sample (FL4-A) [3]: 5930 fold
B2: bsAb21237D (bispecific antibody, V domains shown)
VH 1: EVQLVESGGGLVQPGGSLRLSCAASGFTFSNYGMTWVRQAPGKGLEWVSAITGGGGSTYYSNSVKGRFTISRDNSKNTVYLRMNSVRAEDTAVYYCAKYKWNFVDDWGQGTTVTVSS
VH 2: B1 VH 2
VL: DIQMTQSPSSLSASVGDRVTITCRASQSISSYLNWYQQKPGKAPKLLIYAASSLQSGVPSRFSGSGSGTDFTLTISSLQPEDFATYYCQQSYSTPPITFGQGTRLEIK
notes: LEPR x GP130 bispecific with common light chain; also called H4H21237D; bsAb21237 (LEPR × GP130)
